# From US11802878B2, “Protein sequencing method and reagents” (The Governing Council of the University of Toronto, priority 2009, dated 2023)
# Legend:
# [1] = target: Leu-peptide; settings: reported value, wildtype ClpS:Leu-peptide interaction; read-out: dissociation constant (Kd); cited from earlier work
# [2] = test system: immobilized biotinylated peptide, N-terminal amino acid H (X-SDGMFTAGSLIGK(biotin)); test: Phage ELISA, binding to immobilized peptide, N-terminal H
# Description: (§1) Given the discovery that the specificity pocket library was functionally robust, selections against synthetic peptide ligands were carried out using this library. The specificity pocket library was selected against 20 biotinylated peptides, each with a different N-terminal residue atop a common leader sequence (X-SDGMFTAGSLIGK(biotin)) (SEQ ID NO: 4). The peptides were immobilized individually to the bottom wells of a microtiter plate. […] Consequently, ClpS mutant variants that prefer other residues in addition to the ligand ‘bait’ would bind those competing peptides in solution and simply be washed away. Only selective variants that bound to the immobilized target(s) were amplified during each subsequent round of selection.
# (§2) To evaluate the specificity and selectivity of individual clones, both wild-type ClpS and the selected variants' binding to each of the biotinylated peptides independently were tested. The same approach was also used to monitor the progress of the selections and to prioritize particular pools of phage for further investigation.
# (§3) Promising single clones were picked from the selection pools and their specificity was evaluated using the same panel of biotinylated peptides and various amounts of phage supernatant. […] Accordingly, Variant 1 represents a selective N-terminal amino acid capture probe for tryptophan useful for the sequencing methods described herein. Variant 1 also represents a useful scaffold for performing further generation and selection of variants with desirable properties for use as additional N-terminal amino acid capture probes.
# (§4) The selection and ELISA protocols are very similar. Briefly, each well of a 96-well Maxisorp plate was coated overnight at 4° C. with 100 μl of 10 μg/ml neutravidin in PBS, or 1:500 dilution of anti-FLAG antibody. […]
# (§5) For the ELISA readouts, 100 μl of pH adjusted phage supernatant or polyethylene glycol (PEG) precipitated concentrated phage was added to appropriate wells and allowed to bind for 1 hour at 4° C. […] The reaction was stopped by addition of 90 μl of 1M H3PO4 and the absorbance at A450 nm was read.
# [3] = test system: immobilized biotinylated peptide, N-terminal amino acid Q (X-SDGMFTAGSLIGK(biotin)); test: Phage ELISA, binding to immobilized peptide, N-terminal Q
# Description: as §1, §2, §3, §4, §5
# [4] = test system: immobilized biotinylated peptide, N-terminal amino acid E (X-SDGMFTAGSLIGK(biotin)); test: Phage ELISA, binding to immobilized peptide, N-terminal E
# Description: as §1, §2, §3, §4, §5
# [5] = test system: immobilized biotinylated peptide, N-terminal amino acid M (X-SDGMFTAGSLIGK(biotin)); test: Phage ELISA, binding to immobilized peptide, N-terminal M
# Description: as §1, §2, §3, §4, §5
# [6] = test system: immobilized biotinylated peptide, N-terminal amino acid L (X-SDGMFTAGSLIGK(biotin)); test: Phage ELISA, binding to immobilized peptide, N-terminal L
# Description: as §1, §2, §3, §4, §5
# [7] = test system: leucine, phenylalanine, tyrosine and tryptophan N-termini; settings: Schuenemann et al. 2009; Tasaki et al. 2009; cited from earlier work
# [8] = test system: immobilized biotinylated peptide, N-terminal amino acid S (X-SDGMFTAGSLIGK(biotin)); test: Phage ELISA, binding to immobilized peptide, N-terminal S
# Description: as §1, §2, §3, §4, §5
# [9] = test system: immobilized biotinylated peptide, N-terminal amino acid G (X-SDGMFTAGSLIGK(biotin)); test: Phage ELISA, binding to immobilized peptide, N-terminal G
# Description: as §1, §2, §3, §4, §5
# [10] = test system: immobilized biotinylated peptide, N-terminal amino acid K (X-SDGMFTAGSLIGK(biotin)); test: Phage ELISA, binding to immobilized peptide, N-terminal K
# Description: as §1, §2, §3, §4, §5
# [11] = test system: immobilized biotinylated peptide, N-terminal amino acid I (X-SDGMFTAGSLIGK(biotin)); test: Phage ELISA, binding to immobilized peptide, N-terminal I
# Description: as §1, §2, §3, §4, §5
# [12] = test system: immobilized biotinylated peptide, N-terminal amino acid F (X-SDGMFTAGSLIGK(biotin)); test: Phage ELISA, binding to immobilized peptide, N-terminal F
# Description: as §1, §2, §3, §4, §5
# [13] = test system: immobilized biotinylated peptide, N-terminal amino acid N (X-SDGMFTAGSLIGK(biotin)); test: Phage ELISA, binding to immobilized peptide, N-terminal N
# Description: as §1, §2, §3, §4, §5
# [14] = test system: immobilized biotinylated peptide, N-terminal amino acid R (X-SDGMFTAGSLIGK(biotin)); test: Phage ELISA, binding to immobilized peptide, N-terminal R
# Description: as §1, §2, §3, §4, §5
# [15] = test system: immobilized biotinylated peptide, N-terminal amino acid Y (X-SDGMFTAGSLIGK(biotin)); test: Phage ELISA, binding to immobilized peptide, N-terminal Y
# Description: as §1, §2, §3, §4, §5
# [16] = test system: immobilized biotinylated peptide, N-terminal amino acid T (X-SDGMFTAGSLIGK(biotin)); test: Phage ELISA, binding to immobilized peptide, N-terminal T
# Description: as §1, §2, §3, §4, §5
# [17] = test system: immobilized biotinylated peptide, N-terminal amino acid W (X-SDGMFTAGSLIGK(biotin)); test: Phage ELISA, binding to immobilized peptide, N-terminal W
# Description: as §1, §2, §3, §4, §5
# [18] = test system: immobilized biotinylated peptide, N-terminal amino acid V (X-SDGMFTAGSLIGK(biotin)); test: Phage ELISA, binding to immobilized peptide, N-terminal V
# Description: as §1, §2, §3, §4, §5
molecule,measurement,setting,value
"ClpS WT: truncated wildtype E. coli ClpS polypeptide, 84 amino acids, SEQ ID NO: 1, displayed on phage (protein, listed as Escherichia coli, phage display) KPPSMYKVILVNDDYTPMEFVIDVLQKFFSYDVERATQLMLAVHYQGKAICGVFTAEVAETKVAMVNKYARENEHPLLCTLEKA",Kd,[1],4.8 µM
same,phage ELISA binding signal,"[2]; N-terminal H, phage 10X, sub Fab",−0.03
same,phage ELISA binding signal,"[2]; N-terminal amino acid H, Table 1",−0.03
same,phage ELISA binding signal,"[3]; N-terminal Q, phage 10X, sub Fab",−0.18
same,phage ELISA binding signal,"[3]; N-terminal amino acid Q, Table 1",−0.18
same,phage ELISA binding signal,"[4]; N-terminal E, phage 10X, sub Fab",−0.26
same,phage ELISA binding signal,"[4]; N-terminal amino acid E, Table 1",−0.26
same,phage ELISA binding signal,"[5]; N-terminal M, phage 10X, sub Fab",−0.11
same,phage ELISA binding signal,"[5]; N-terminal amino acid M, Table 1",−0.11
same,phage ELISA binding signal,"[6]; N-terminal L, phage 10X, sub Fab",1.57
same,phage ELISA binding signal,"[6]; N-terminal amino acid L, Table 1",1.57
same,affinities,[7],single-digit micromolar to nanomolar
same,phage ELISA binding signal,"[8]; N-terminal S, phage 10X, sub Fab",−0.01
same,phage ELISA binding signal,"[8]; N-terminal amino acid S, Table 1",−0.01
same,phage ELISA binding signal,"[9]; N-terminal G, phage 10X, sub Fab",−0.04
same,phage ELISA binding signal,"[9]; N-terminal amino acid G, Table 1",−0.04
same,phage ELISA binding signal,"[10]; N-terminal K, phage 10X, sub Fab",0.05
same,phage ELISA binding signal,"[10]; N-terminal amino acid K, Table 1",0.05
same,phage ELISA binding signal,"[11]; N-terminal I, phage 10X, sub Fab",−0.16
same,phage ELISA binding signal,"[11]; N-terminal amino acid I, Table 1",−0.016
same,phage ELISA binding signal,"[12]; N-terminal F, phage 10X, sub Fab",1.81
same,phage ELISA binding signal,"[12]; N-terminal amino acid F, Table 1",1.81
same,phage ELISA binding signal,"[13]; N-terminal N, phage 10X, sub Fab",−0.05
same,phage ELISA binding signal,"[13]; N-terminal amino acid N, Table 1",−0.05
same,phage ELISA binding signal,"[14]; N-terminal R, phage 10X, sub Fab",0.13
same,phage ELISA binding signal,"[14]; N-terminal amino acid R, Table 1",0.13
same,phage ELISA binding signal,"[15]; N-terminal Y, phage 10X, sub Fab",1.08
same,phage ELISA binding signal,"[15]; N-terminal amino acid Y, Table 1",1.08
same,phage ELISA binding signal,"[16]; N-terminal T, phage 10X, sub Fab",0.01
same,phage ELISA binding signal,"[16]; N-terminal amino acid T, Table 1",0.01
same,phage ELISA binding signal,"[17]; N-terminal W, phage 10X, sub Fab",0.77
same,phage ELISA binding signal,"[17]; N-terminal amino acid W, Table 1",0.77
same,phage ELISA binding signal,"[18]; N-terminal V, phage 10X, sub Fab",−0.09
same,phage ELISA binding signal,"[18]; N-terminal amino acid V, Table 1",−0.09
